Here are results for six molecules from patent US9340584 (dated 2016).

Usually Kd stands for the equilibrium constant for the complex coming apart. A lower Kd goes with a tighter complex.

This assay concerns the target human serum albumin (human, UniProt P02768 25-609). In words: SPR. A general note: In SPR one partner is held on a chip, and binding of the other changes the refractive index at the surface.

B1: RLuc-H6 (other)
chain: MVKQIESKTAFQEALDAAGDKLVVVDFSATDRKPWKTRGWSGPSKMIKPFFHSLSEKYSNVIFLEVDVDDAQDVASEAFGLFSFPLLPTFQFFKKGQKVGEFSGANKEKLEATINELV
As to B1, binding was characterised by a dissociation constant (Kd) of 2460 nM.

B2: mutant TRX protein H6 (HSA binder, purified) (designed binder)
chain: B1 chain
B2 came in with a Kd of 870 nM.

B3: RLuc-F3 (other)
chain: MVKQIESKTAFQEALDAAGDKLVVVDFSATGGTPGRRNRWSGPSKMIKPFFHSLSEKYSNVIFLEVDVDDAQDVASEAFCEFCFPFLPTFQFFKKGQKVGEFSGANKEKLEATINELV
With B3, binding was characterised by a dissociation constant (Kd) of 640 nM.

B4: mutant TRX protein F3 (HSA binder, purified) (designed binder)
chain: B3 chain
Turning to B4, the Kd turned out to be 520 nM.

B5: mutant TRX protein E2 (HSA binder, purified) (designed binder)
chain: MVKQIESKTAFQEALDAAGDKLVVVDFSATKNEKRDVAEWSGPSKMIKPFFHSLSEKYSNVIFLEVDVDDAQDVASEAFGFFGFPVLPTFQFFKKGQKVGEFSGANKEKLEATINELV
With B5, binding was characterised by a dissociation constant (Kd) of 830 nM. Compared with the last molecule, the Kd is about 1.6-fold higher.

B6: RLuc-E2 (other)
chain: B5 chain
For the molecule B6, the Kd was found to be 1300 nM.
